The target in data set [1] is IDE (S10 extract or rIDE) (Homo sapiens, UniProt P14735). It is filed as in vitro ADME. The note with it: 30 ng vp6, 5 μg S10 extract, up to 60 min; Western blot densitometry; at least 3 independent experiments. How it is done:
Fig 9 Multiplication of PTAPPA-motifs stabilizes p6. 20 ng of sp6 or 30 ng of vp6 were incubated either with 5 μg S10 extract (A/B/C) or 2 ng of rIDE (D) for up to 60 min. Degradation efficiency was quantified via densitometric analyses of Western blots. Values represent the arithmetic mean ± SD of at least 3 independent experiments for each setting.
Typically 5 μg S10 were incubated with inhibitor or buffer and 20–100 ng sp6 at 37°C for 30 min. Reactions were stopped by addition of sample buffer and incubation at 95°C for 5 min. Remaining p6 was detected by Western blotting using an anti-p6 rabbit antiserum. Alternatively, 10 ng of BODIPY FL-labeled sp6 (sp6BY) were used as substrate and detected directly in the polyacrylamide gel by fluorescence scanning. In some experiments the amount of p6 was densitometrically quantified with the software AIDA (Raytest). For the in vitro degradation of amyloid-β 10 ng of Aβ-FITC (abcam) were used analogously to sp6BY. For the in vitro degradation of viral p6, VLPs were pelleted and lysed in IDE enzyme buffer (150 mM NaCl, 50 mM Tris pH 7.4, 0.5% (v/v) Triton X-100). The p6 content was estimated by Western blotting using a dilution series of sp6 with known concentrations. Equivalents of 15 ng were used for digestion experiments and subsequently detected by Western blotting. […]

In data set [2] the test system is X4-tropic field isolate HIV-1 BK132. The data set can be described thus: HIV-1 replication capacity in activated PBMCs (RT activity, AUC). It is filed as cell-based. Particulars: 50 μg/ml insulin or 10 μM 6bK, permanent treatment; PHA-IL2-stimulated PBMCs from 3 different donors (S6 Fig). How it is done: For infection, PBMCs were isolated from buffy coats of several blood donors and stimulated with PHA and IL-2 for three days. 1×10^6 PBMCs were incubated overnight with virus preparations equivalent to 0.031 ng of p24, and cell culture supernatant was collected every second or third day post infection (dpi). […] Virus replication was assessed by quantification of the virus-associated RT activity by [^32P]-TTP incorporation, using an oligo(dT)-poly(A) template as described elsewhere. In case of replications with inhibitor treatment, cell viability was determined in parallel by WST-1 assay (Roche) according to the manufacturer’s instructions on the last day of replication. For estimation of the multiplicity of infection (MOI), infectious units of virus stocks were determined by TCID50 end point titration in activated PBMCs. […] The MOI was calculated as the ratio of infectious units per target cells and was ~10^−4 in case of 0.031 ng p24 of input virus.
To determine the replication capacity of HIV-1 following infection with the indicated HIV-1 variants, the respective replication profiles were depicted as diagram (y-axis: RT activity; x-axis: dpi) and the area under curve was calculated and defined as the corresponding replication capacity of the HIV-1 variants. […] Viability of treated cells was assessed on the last day of replication by the water-soluble tetrazolium method. […]

For the next data set, the target named is T1, recombinant IDE (rIDE) (Rattus norvegicus, UniProt P35559).
T1 construct: purchased Calbiochem
T1 sequence (P35559 whole entry): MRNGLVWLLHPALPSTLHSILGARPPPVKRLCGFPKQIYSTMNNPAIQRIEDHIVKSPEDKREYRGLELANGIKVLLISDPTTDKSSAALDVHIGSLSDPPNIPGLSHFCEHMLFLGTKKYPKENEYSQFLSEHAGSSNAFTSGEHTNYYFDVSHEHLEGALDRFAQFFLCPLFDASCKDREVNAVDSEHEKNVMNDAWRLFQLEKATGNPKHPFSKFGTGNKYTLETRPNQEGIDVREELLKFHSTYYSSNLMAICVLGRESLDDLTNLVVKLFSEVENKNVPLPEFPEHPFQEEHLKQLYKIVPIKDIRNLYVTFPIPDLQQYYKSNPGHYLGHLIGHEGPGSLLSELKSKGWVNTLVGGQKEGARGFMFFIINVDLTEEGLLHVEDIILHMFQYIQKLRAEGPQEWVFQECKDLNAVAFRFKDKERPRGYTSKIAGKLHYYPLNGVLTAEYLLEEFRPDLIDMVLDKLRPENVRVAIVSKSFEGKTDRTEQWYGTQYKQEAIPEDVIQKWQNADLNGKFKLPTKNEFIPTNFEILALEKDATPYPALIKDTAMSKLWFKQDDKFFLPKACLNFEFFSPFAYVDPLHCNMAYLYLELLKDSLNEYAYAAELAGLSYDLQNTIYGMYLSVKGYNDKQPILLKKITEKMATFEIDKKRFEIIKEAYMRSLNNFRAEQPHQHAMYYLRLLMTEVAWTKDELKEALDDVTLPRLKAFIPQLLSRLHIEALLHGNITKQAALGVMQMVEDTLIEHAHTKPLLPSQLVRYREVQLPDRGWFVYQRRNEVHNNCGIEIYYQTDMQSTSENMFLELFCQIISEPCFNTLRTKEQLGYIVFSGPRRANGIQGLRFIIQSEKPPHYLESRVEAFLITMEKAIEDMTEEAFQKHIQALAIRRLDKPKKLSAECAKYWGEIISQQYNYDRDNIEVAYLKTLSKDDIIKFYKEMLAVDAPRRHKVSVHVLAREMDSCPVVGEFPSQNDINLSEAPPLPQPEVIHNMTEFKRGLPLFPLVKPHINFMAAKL
The data set can be described thus: Inhibition of rIDE-mediated degradation of sp6BY. Particulars: 10 ng rIDE, 10 ng sp6BY, 30 min, 37°C; TPEN 1 mM, NEM 1 mM, insulin 100 μg/ml. It is filed as biochemical. How it is done: Fig 6 IDE is sufficient and required for the in vitro degradation of sp6 and vp6. (A) 10 ng sp6BY were incubated with 5 μg S10 extract from HeLa cells, either untransfected or transfected with control or IDE-specific siRNA, for 0, 10, 30 or 90 min at 37°C. (B) sp6BY was detected by fluorescence emission and quantified. (C) VLP lysates from HEK293T cells were incubated with S10 from siRNA treated cells described in A. Viral proteins were detected as described in Fig 1. (D) Western blot analyses of the S10 extract used in A and C. The membrane was stained with antibodies specific for IDE, HSP70, and β-actin. […] (F) VLP lysates were incubated with 10 ng rIDE for 30 min.
(§1) Typically 5 μg S10 were incubated with inhibitor or buffer and 20–100 ng sp6 at 37°C for 30 min. Reactions were stopped by addition of sample buffer and incubation at 95°C for 5 min. Remaining p6 was detected by Western blotting using an anti-p6 rabbit antiserum. Alternatively, 10 ng of BODIPY FL-labeled sp6 (sp6BY) were used as substrate and detected directly in the polyacrylamide gel by fluorescence scanning. In some experiments the amount of p6 was densitometrically quantified with the software AIDA (Raytest). For the in vitro degradation of amyloid-β 10 ng of Aβ-FITC (abcam) were used analogously to sp6BY. For the in vitro degradation of viral p6, VLPs were pelleted and lysed in IDE enzyme buffer (150 mM NaCl, 50 mM Tris pH 7.4, 0.5% (v/v) Triton X-100). The p6 content was estimated by Western blotting using a dilution series of sp6 with known concentrations. Equivalents of 15 ng were used for digestion experiments and subsequently detected by Western blotting. Experiments carried out with recombinant IDE (Calbiochem) were performed in IDE enzyme buffer. Recombinant FITC-labeled insulin was purchased from Sigma.

Data set [3] concerns the target T2, insulin-degrading enzyme (IDE) (Homo sapiens, UniProt P14735).
T2 construct: endogenous in cells; host or cells: HeLa cells (cytosolic S10 extract)
The data set can be described thus: Inhibition of Aβ-FITC degradation in S10 extract. The class given is biochemical. The note with it: titration; 10 ng Aβ-FITC, 5 μg S10, 45 min, 37°C; fluorescence. How it is done:
as §1, with “Typically 5 μg S10 were incubated with inhibitor or buffer and 20–100 ng sp6 at 37°C for 30 min.” left out
Supplementary file pone.0174254.s003.tif: S3 Fig p6 competes with the in vitro degradation of Aβ. […] Aβ-FITC was detected by measurement of fluorescence excitation. The band marked with * represents Aβ-oligomers and has been described earlier. (B) Band intensities were quantified for four independent experiments and values represent the arithmetic mean ± SD. […]

The test system of the next data set is R5-tropic HIV-1NL4-3. Briefly: HIV-1 replication capacity in activated PBMCs (RT activity, AUC). It is filed as cell-based. The note with it: 50 μg/ml insulin or 10 μM 6bK, permanent treatment; PHA-IL2-stimulated PBMCs from 3 different donors. How it is done:
(§2) For infection, PBMCs were isolated from buffy coats of several blood donors and stimulated with PHA and IL-2 for three days. 1×10^6 PBMCs were incubated overnight with virus preparations equivalent to 0.031 ng of p24, and cell culture supernatant was collected every second or third day post infection (dpi). […] Virus replication was assessed by quantification of the virus-associated RT activity by [^32P]-TTP incorporation, using an oligo(dT)-poly(A) template as described elsewhere. In case of replications with inhibitor treatment, cell viability was determined in parallel by WST-1 assay (Roche) according to the manufacturer’s instructions on the last day of replication. For estimation of the multiplicity of infection (MOI), infectious units of virus stocks were determined by TCID50 end point titration in activated PBMCs. The number of HIV-1 target cells was estimated to be 50% of total PBMCs as reported in [93]. The MOI was calculated as the ratio of infectious units per target cells and was ~10^−4 in case of 0.031 ng p24 of input virus.
(§3) To determine the replication capacity of HIV-1 following infection with the indicated HIV-1 variants, the respective replication profiles were depicted as diagram (y-axis: RT activity; x-axis: dpi) and the area under curve was calculated and defined as the corresponding replication capacity of the HIV-1 variants. In every experiment the replication capacity of the untreated wt was set to 100% and compared with the indicated variants. Viability of treated cells was assessed on the last day of replication by the water-soluble tetrazolium method. All conditions were not found to diminish cell viability.

The subject of the next data set is X4-tropic HIV-1NL4-3 wt. Described as above. It is filed as cell-based. Particulars: continuous treatment with 50 μg/ml insulin; PHA-IL2-stimulated PBMCs from 3 different donors; MOI ~10^−4; untreated wt = 100%. How it is done:
as §2, §3

For data set [4], the system named is X4-tropic HIV-1NL4-3 3xPTAPPA mutant. The description is as above. Particulars: 50 μg/ml insulin or 10 μM 6bK, permanent treatment; PHA-IL2-stimulated PBMCs from 3 different donors. It is filed as cell-based. How it is done: as §2, §3
In a further data set the test system is purified mammalian IDE. The note with it: purified mammalian IDE; cited from earlier work.

Values joined by “and” are separate entries in the source; they are usually repeats but may differ in a detail not shown here. Identical values can stand only once.

In the case of `CC[C@H](C)[C@H](NC(=O)[C@@H]1CCCN1C(=O)[C@H](CCC(=O)O)NC(=O)[C@H](CCC(N)=O)NC(=O)[C@H](CCCCN)NC(=O)[C@H](CCC(N)=O)NC(=O)[C@H](CO)NC(=O)[C@@H]1CCCN1C(=O)[C@@H](NC(=O)[C@@H](NC(=O)[C@@H](NC(=O)[C@H](CCC(=O)O)NC(=O)[C@H](CCC(=O)O)NC(=O)CNC(=O)[C@H](Cc1ccccc1)NC(=O)[C@H](CCCNC(=N)N)NC(=O)[C@H](Cc1ccccc1)NC(=O)[C@H](CO)NC(=O)[C@H](CCC(=O)O)NC(=O)[C@H](C)NC(=O)[C@@H]1CCCN1C(=O)[C@@H]1CCCN1C(=O)[C@H](C)NC(=O)[C@@H](NC(=O)[C@H](CC(C)C)NC(=O)[C@H](C)NC(=O)[C@@H]1CCCN1C(=O)[C@@H]1CCCN1C(=O)[C@H](C)NC(=O)[C@@H](NC(=O)[C@@H]1CCCN1C(=O)[C@H](CCC(=O)O)NC(=O)[C@@H]1CCCN1C(=O)[C@H](CCCNC(=N)N)NC(=O)[C@H](CO)NC(=O)[C@H](CCC(N)=O)NC(=O)[C@@H](N)CC(C)C)[C@@H](C)O)[C@@H](C)O)[C@@H](C)O)[C@@H](C)O)[C@@H](C)O)C(=O)N[C@@H](CC(=O)O)C(=O)N[C@@H](CCCCN)C(=O)N[C@@H](CCC(=O)O)C(=O)N[C@@H](CC(C)C)C(=O)N[C@@H](Cc1ccc(O)cc1)C(=O)N1CCC[C@H]1C(=O)N[C@@H](CC(C)C)C(=O)N[C@@H](C)C(=O)N[C@@H](CO)C(=O)N[C@@H](CC(C)C)C(=O)N[C@@H](CCCNC(=N)N)C(=O)N[C@@H](CO)C(=O)N[C@@H](CC(C)C)C(=O)N[C@@H](Cc1ccccc1)C(=O)NCC(=O)N[C@@H](CO)C(=O)N[C@@H](CC(=O)O)C(=O)N1CCC[C@H]1C(=O)N[C@@H](CO)C(=O)N[C@@H](CO)C(=O)N[C@@H](CCC(N)=O)C(=O)O` [PL], the “degradation kinetics of vp6 mutants in S10” value in data set [1] was “comparable to their 2x and 3x counterparts”.
As a reminder, the Km is the substrate concentration at which the rate is half of its maximum. By kcat is commonly meant the number of substrate molecules converted per active site and unit of time at saturation. For insulin, the “effect on replication capacity of HIV-1 BK132 compared with HIV-1NL4-3” value in data set [2] was “same impact”. The “stabilization of sp6 in the presence of rIDE” value in the data set with recombinant IDE (rIDE) is “stabilized sp6”. The “effect on degradation of Aβ-FITC” value in data set [3] was “resulted in a stabilization of Aβ-FITC”. Besides, the “effect on replication capacity of R5-tropic HIV-1 (wt and 3xPTAPPA)” value with R5-tropic HIV-1NL4-3 is on record as “insensitive to exogenous insulin”. Besides, the “reduction of HIV-1 replication (replication capacity, AUC of RT activity)” value in the data set on X4-tropic HIV-1NL4-3 wt is ~ 50% and 50%. For the same compound, in data set [4], the “effect on replication capacity of the IDE-insensitive 3xPTAPPA mutant” value is reported as “insensitive to insulin treatment”. Besides, in the data set with purified mammalian IDE, the Km is 0.066 µM and the kcat was 0.025 s⁻¹.

The values above are taken from paper PMC5384750 (PLoS ONE, 2017).
